Test [1] deals with T1, p52 (1-341) fused to a BiFC fragment (human, UniProt Q00653 1-341).
T1 construct: NF-kappaB p52 (processed product of NF-kappaB2/p100), rel homology region, residues 1-341; Three constructs that differ only in the fluorescent-protein fragment are written as one molecule; The methods give limits for p52-VN and p52-CC only; also called p52-VN; p52-CC; not shown: BiFC fragment behind a (GGGGS)2 linker (Venus 1-172 in p52-VN; Cerulean 155-238 in p52-CC; N-terminal fragment of …)
T1 sequence (looked up): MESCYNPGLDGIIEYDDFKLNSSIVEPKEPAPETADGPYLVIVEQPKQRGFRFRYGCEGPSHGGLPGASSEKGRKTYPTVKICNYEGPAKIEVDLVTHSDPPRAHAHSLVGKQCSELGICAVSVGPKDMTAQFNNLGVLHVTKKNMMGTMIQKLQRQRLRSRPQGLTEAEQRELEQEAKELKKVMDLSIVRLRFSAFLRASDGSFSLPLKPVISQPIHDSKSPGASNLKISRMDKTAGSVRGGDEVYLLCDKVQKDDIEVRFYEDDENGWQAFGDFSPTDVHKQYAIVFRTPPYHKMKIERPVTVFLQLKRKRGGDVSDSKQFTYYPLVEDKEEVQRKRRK
The test can be described thus: split reporter (BiFC, NanoBiT); multicolor BiFC: three BiFC constructs (VN, CC, CN) co-expressed in HEK 293T cells so that two dimers compete, with or without co-expressed Bcl3 or RelB; cells fixed with methanol 48 h after transfection; Venus and Cerulean intensity as percent of the two-construct reference. The conditions noted are these: partners not purified.

Test [2] deals with T2, Recombinant non-tagged human p50 (1-435) (human, UniProt P19838 1-435).
T2 chain: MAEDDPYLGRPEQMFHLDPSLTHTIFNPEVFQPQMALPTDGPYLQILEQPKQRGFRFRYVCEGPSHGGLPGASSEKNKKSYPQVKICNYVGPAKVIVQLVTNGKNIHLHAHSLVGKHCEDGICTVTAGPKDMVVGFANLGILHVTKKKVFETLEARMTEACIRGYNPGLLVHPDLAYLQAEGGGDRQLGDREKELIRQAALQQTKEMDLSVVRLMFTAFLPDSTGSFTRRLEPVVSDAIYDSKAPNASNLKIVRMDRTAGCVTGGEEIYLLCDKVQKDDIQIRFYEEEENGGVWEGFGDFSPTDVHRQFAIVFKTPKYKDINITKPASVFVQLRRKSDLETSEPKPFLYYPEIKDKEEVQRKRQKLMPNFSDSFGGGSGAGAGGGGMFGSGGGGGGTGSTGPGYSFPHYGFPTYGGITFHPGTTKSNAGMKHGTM
The test can be described thus: BLI; p50:p50 homodimer. (BLI is a label-free optical method that tracks binding on a fibre tip over time.)

Test [3] deals with T2, Recombinant non-tagged human p50 (1-435). The test can be described thus: BLI; p50:p50 homodimer.
Test [4] concerns the target T3, Recombinant non-tagged human p52 (1-398) (human, UniProt Q00653 1-398).
T3 chain: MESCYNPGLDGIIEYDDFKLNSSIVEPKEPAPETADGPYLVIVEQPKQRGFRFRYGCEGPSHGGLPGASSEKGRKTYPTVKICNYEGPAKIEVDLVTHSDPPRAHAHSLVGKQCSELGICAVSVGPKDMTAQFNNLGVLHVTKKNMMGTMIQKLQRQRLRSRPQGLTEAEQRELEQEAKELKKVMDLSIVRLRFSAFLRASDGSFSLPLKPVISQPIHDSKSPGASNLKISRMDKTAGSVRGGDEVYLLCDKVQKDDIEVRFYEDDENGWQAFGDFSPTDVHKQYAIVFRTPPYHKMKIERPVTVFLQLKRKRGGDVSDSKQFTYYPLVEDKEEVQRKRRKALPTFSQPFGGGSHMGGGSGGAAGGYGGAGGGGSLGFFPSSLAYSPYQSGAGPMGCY
The test can be described thus: BLI; p52:p52 homodimer; duplicate experiment.

Test [5] concerns the target T3, Recombinant non-tagged human p52 (1-398). The test can be described thus: BLI; p52:p52 homodimer.
Test [6] has the same target. The test can be described thus: BLI; p52:p52 homodimer; duplicate experiment.
Test [7] addresses T2, Recombinant non-tagged human p50 (1-435). The test can be described thus: BLI; p50:p50 homodimer; duplicate experiment.
Test [8] shares this target. The test can be described thus: BLI; p50:p50 homodimer; duplicate experiment.
Test [9] concerns the target T3, Recombinant non-tagged human p52 (1-398). The test can be described thus: BLI; p52:p52 homodimer.

From PMC9389042, “Atypical IκB Bcl3 enhances the generation of the NF-κB p52 homodimer” (Frontiers in Cell and Developmental Biology, 2022) come the findings set out here.

One may read the Kd as the equilibrium constant for the complex coming apart. What is called koff is a measure of how fast the partners let go of each other.

B1: RelB (1-400) fused to a BiFC fragment (domain or fragment, UniProt Q04863 1-400, looked up)
chain: MPSRRAARESAPELGALGSSDLSSLSLTVSRTTDELEIIDEYIKENGFGLDGTQLSEMPRLVPRGPASLSSVTLGPAAPPPPATPSWSCTLGRLVSPGPCPRPYLVITEQPKQRGMRFRYECEGRSAGSILGESSTEASKTLPAIELRDCGGLREVEVTACLVWKDWPHRVHPHSLVGKDCTDGVCRVRLRPHVSPRHSFNNLGIQCVRKKEIEAAIERKIQLGIDPYNAGSLKNHQEVDMNVVRICFQASYRDQQGHLHRMDPILSEPVYDKKSTNTSELRICRINKESGPCTGGEELYLLCDKVQKEDISVVFSTASWEGRADFSQADVHRQIAIVFKTPPYEDLEISEPVTVNVFLQRLTDGVCSEPLPFTYLPRDHDSYGVDKKRKRGLPDVLGEL
notes: RelB, rel homology region, residues 1-400; Three constructs that differ only in the fluorescent-protein fragment are written as one molecule; The methods give limits for RelB-CN only; also called RelB-CN; RelB-VN; not shown: BiFC fragment behind a (GGGGS)2 linker (Cerulean 1-172 in RelB-CN; N-terminal fragment of Venus in RelB-VN; C-terminal fragment of Cerulean in RelB-CC; one for each …)
In the case of B1, the “fold more stable than the p52:p52 homodimer (BiFC fluorescence, without Bcl3)” value in [1] is roughly 20 fold.

B2: His-Bcl3(1-446) (natural protein)
chain: MDEGPVDLRTRPKAAGLPGAALPLRKRPLRAPSPEPAAPRGAAGLVVPLDPLRGGCDLPAVPGPPHGLARPEALYYPGALLPLYPTRAMGSPFPLVNLPTPLYPMMCPMEHPLSADIAMATRADEDGDTPLHIAVVQGNLPAVHRLVNLFQQGGRELDIYNNLRQTPLHLAVITTLPSVVRLLVTAGASPMALDRHGQTAAHLACEHRSPTCLRALLDSAAPGTLDLEARNYDGLTALHVAVNTECQETVQLLLERGADIDAVDIKSGRSPLIHAVENNSLSMVQLLLQHGANVNAQMYSGSSALHSASGRGLLPLVRTLVRSGADSSLKNCHNDTPLMVARSRRVIDILRGKATRPASTSQPDPSPDRSANTSPESSSRLSSNGLLSASPSSSPSQSPPRDPPGFPMAPPNFFLPSPSPPAFLPFAGVLRGPGRPVPPSPAPGGS
B2: the Kd in [2] stood at 6.87 nM; in [5] it was 3.12 nM; in test [6] it was 2.4 nM; in [8], 6.56 nM. In addition, the off-rate constant (koff) turned out to be 0.000354 s⁻¹ in [3], 0.000323 s⁻¹ in test [4], 0.00033 s⁻¹ in test [7] and 0.000393 s⁻¹ in test [9].
